Measurements reported in US20240409960A1, “METHOD FOR CONTROLLING PROTEIN FUNCTION” (The University of Tokyo, priority 2021, published 2024).

Experiments:
[1] = tested on: DNA sequence flanked by two loxP sites (loxP-stop-loxP Fluc reporter) in HEK293 cells; assay: luciferase assay of Cre-loxP DNA recombination in HEK293 cells; format: cell-based, human; details: for TMP-dependent DNA recombination activity (induction): TMP 10 nM or 500 nM vs DMSO; for background DNA recombination activity (leakage) in the absence of TMP: luciferase reporter
Description: For constructing a luciferase reporter for detecting Cre-loxP recombinase activity, the polyadenylation signal (poly(A)) repeated sequence (“stop”)) flanked by two loxP sites ([…]: SEQ ID No: 36) in the same orientation was amplified from Addgene plasmid (ID: 22797). Sequence encoding firefly luciferase (Fluc) was amplified from pGL4.31 vector (Promega). The loxP stop-loxP-Fluc construct was inserted into HindIII and XhoI sites in pcDNA3.1 (+) vector containing the CMV promoter.
HEK293T cells (American Type Culture Collection: ATCC) were cultured at 37° C. under 5% CO2 in Dulbecco's Modified Eagle Medium (DMEM; Thermo Fisher Scientific) supplemented with 10% fetal bovine serum (FBS; Thermo Fisher Scientific), 100 units/ml of penicillin and 100 μg/ml of streptomycin (Thermo Fisher Scientific) and 2 mM GlutaMAX (Thermo Fisher Scientific).
For luciferase assay, HEK 293 cells were plated at 25,000 cells per well on a 96-well flat white microplate (Thermo Fisher Scientific), and were then cultured for 24 hours at 37° C. in 5% CO2. The cells were transfected with cDNAs encoding destabilized Cre along with the luciferase reporter (loxP-stop-loxP Fluc), using X-tremeGENE9 reagent (Merck Millipore) at 37° C. The total amount of DNA was 50 ng per well. Twenty-four hours after the transfection, TMP or DMSO was added into the cells, and the cells were further cultured for 24 hours or 48 hours. Just before the luciferase assay, the medium was replaced with Hanks' balanced salt solution (HBSS) (Thermo Fisher Scientific) containing 0.2 mM D-luciferin potassium salt. Bioluminescence measurement was performed for 1 second per well at room temperature using a Centro XS^3 LB 960 plate-reading luminometer (Berthold Technologies).

[2] = tested on: loxP-stop-loxP Fluc reporter in mice liver; assay: in vivo Cre-loxP recombination, bioluminescence imaging after HTV injection into mice; details: for DNA recombination activity in vivo in the absence of TMP: HTV injection, DMSO I.P., bioluminescence 24 hours after injection; for TMP-dependent DNA recombination activity in vivo: TMP 167 μg/g body weight I.P. 3 hours after HTV injection
Protocol: Experiments using mice were performed in accordance with the Guidelines for Care and Use of Laboratory Animals as stated by the University of Tokyo. In all the experiments, four week-old female Slc: ICR mice (Sankyo Labo Service Corporation, Inc.) were used. The mice were […] with cDNAs encoding destabilized Cre along with the luciferase reporter (loxP-stop-loxP Fluc) at 1:9 ratio, using TransIT-EE Hydrodynamic Delivery Solution (Mirus Bio LLC, Madison). The total amount of the DNA injected into a mouse was 10 μg per mouse. The volume of a delivery solution was set at 0.1 mL per mouse weight (g). After the hydrodynamic (HTV) injection of DNA, the mice were bred for 3 hours, and thereafter, TMP (167 μg/g body weight) or DMSO was intraperitoneally (I.P.) injected into the mice. The total volume of the TMP solution injected into a mouse was 100 μL per mouse weight (g). The intraperitoneally injected mice were bred for further 21 hours. The bioluminescence imaging of the mice was performed 24 hours after the HTV injection of DNA. Prior to the bioluminescence imaging, 100 mM D-luciferin was intraperitoneally injected into the mice. The total volume of the injected D-luciferin solution was 10 μL per mouse weight (g). Three minutes after the D-luciferin injection, the bioluminescence images of the mice were obtained using the Lumazone bioluminescence imager (Nippon Roper) equipped with the Evolve EMCCD camera (Photometrics) for 1 minutes. During the intraperitoneal D-luciferin injection and the bioluminescence imaging, the mice were anaesthetized with isoflurane (Abb Vie) to keep them motionless. The obtained data were analyzed with the SlideBook 4.2 software (Intelligent Innovations Inc.).
Next, the usefulness of SPEED-Cre in a living mouse body, namely, in vivo was examined. Using a hydrodynamic tail vain (HTV) injection method (Liu et al., Gene Ther. 6:1258-1266, 1999), mice liver was we transiently transfected with DD-Cre or SPEED-Cre (FIG. 5a). Three hours after the HTV injection, TMP (167 μg/g body weight) or DMSO was intraperitoneally (I.P.) administered into the DD-Cre- or SPEED-Cre-transfected mice (FIG. 5a). The DNA recombination activity was measured using the bioluminescence of a luciferase reporter as an indicator. […] The DNA recombination ability of DD-Cre in vivo was consistent to the ability in in vitro experiments using the human cell line.

B1: SPEED-Cre: split Cre with a DD sequence on each of the N-terminal and C-terminal fragments; SEQ ID No: 10 (protein)
chain: MVSKYPYDVPDYARSGGSGGMISLIAALAVDYVIGMENAMPWNLPADLAWFKRNTLNKPVIMGRHTWESIGRPLPGRKNIILSSQPSTDDRVTWVKSVDEAIAACGDVPEIMVIGGGRVIEQFLPKAQKLYLTHIDAEVEGDTHFPDYEPDDWESVFSEFHDADAQNSHSYCFEILERRGGSGGSGGKLVPKKKRKVGGSNLLTVHQNLPALPVDATSDEVRKNLMDMFRDRQAFSEHTWKMLLSVCRSWAAWCKLNNRKWFPAEPEDVRDYLLYLQARGLAVKTIQQHLGQLNMLHRRSGLPRPSDSNAVSLVMRRIRKENVDAGERAKQALAFERTDFDQVRSLMENSGSGSGATNFSLLKQAGDVEENPGPLEDRCQDIRNLAFLGIAYNTLLRIAEIARIRVKDISRTDGGRMLIHIGRTKTLVSTAGVEKALSLGVTKLVERWISVSGVADDPNNYLFCRVRKNGVAAPSATSQLSTRALEGIFEATHRLIYGAKDDSGQRYLAWSGHSARVGAARDMARAGVSIPEIMQAGGWTNVNIVMNYIRNLDSETGAMVRLLEDGDGGSGGSGGMISLIAALAVDYVIGMENAMPWNLPADLAWFKRNTLNKPVIMGRHTWESIGRPLPGRKNIILSSQPSTDDRVTWVKSVDEAIAACGDVPEIMVIGGGRVIEQFLPKAQKLYLTHIDAEVEGDTHFPDYEPDDWESVFSEFHDADAQNSHSYCFEILERR
modifications: MISC_FEATURE - HAtag; DOMAIN 21..179 Degradation Domain; SIGNAL 190..197 Nuclear Localization Signal; MISC_FEATURE - N-terminal side of Cre; MISC_FEATURE - P2A; MISC_FEATURE - C-terminal side of Cre; DOMAIN 576..734 Degradation Domain; Bacteriophage P1
TMP-dependent DNA recombination activity (induction) ([1]; 5 ng expression plasmid, 24 or 48 hours (FIG. 4d)): not less than 10 fold | background DNA recombination activity (leakage) in the absence of TMP ([1]; HEK293 cells, no TMP): extremely low level that was comparable to the case of using the pcDNA3.1 empty vector plasmid and the reporter plasmid | leakage of DNA recombination activity in the absence of TMP as a function of the amount of expression plasmid ([1]; HEK293 cells, plasmid amount varied, no TMP): maintained a low level | TMP-dependent DNA recombination activity (induction) ([1]; expression plasmid in various amounts, 24 or 48 hours (FIGS. 4f and g)): up to 330 fold | DNA recombination activity in vivo in the absence of TMP [2]: suppressed to low, comparable to a negative control group using the pcDNA3.1 empty vector plasmid | TMP-dependent DNA recombination activity in vivo [2]: high TMP-dependent DNA recombination activity, comparable to the recombination activity of Cre

B2: DD-sasCre: sasCre tagged with a single DD sequence on the N terminal side of Cre; SEQ ID No: 9 (protein)
chain: MVSKYPYDVPDYARSGGSGGMISLIAALAVDYVIGMENAMPWNLPADLAWFKRNTLNKPVIMGRHTWESIGRPLPGRKNIILSSQPSTDDRVTWVKSVDEAIAACGDVPEIMVIGGGRVIEQFLPKAQKLYLTHIDAEVEGDTHFPDYEPDDWESVFSEFHDADAQNSHSYCFEILERRGGSGGSGGKLVPKKKRKVGGSNLLTVHQNLPALPVDATSDEVRKNLMDMFRDRQAFSEHTWKMLLSVCRSWAAWCKLNNRKWFPAEPEDVRDYLLYLQARGLAVKTIQQHLGQLNMLHRRSGLPRPSDSNAVSLVMRRIRKENVDAGERAKQALAFERTDFDQVRSLMENSGSGSGATNFSLLKQAGDVEENPGPLEDRCQDIRNLAFLGIAYNTLLRIAEIARIRVKDISRTDGGRMLIHIGRTKTLVSTAGVEKALSLGVTKLVERWISVSGVADDPNNYLFCRVRKNGVAAPSATSQLSTRALEGIFEATHRLIYGAKDDSGQRYLAWSGHSARVGAARDMARAGVSIPEIMQAGGWTNVNIVMNYIRNLDSETGAMVRLLEDGD
modifications: MISC_FEATURE - HAtag; DOMAIN 21..179 Degradation Domain; SIGNAL 190..197 Nuclear Localization Signal; MISC_FEATURE - N-terminal side of Cre; MISC_FEATURE - P2A; MISC_FEATURE - C-terminal side of Cre; Bacteriophage P1
background DNA recombination activity (leakage) in the absence of TMP ([1]; HEK293 cells, no TMP): significantly lower activity leakage than DD-Cre 1.4

B3: split-Cre: Cre split between Ser152 and Asp153 into N-terminal (a.a. 2-152) and C-terminal (a.a. 153-343) self-assembling fragments; SEQ ID No: 8 (protein)
chain: MVSKYPYDVPDYARSGGSGGKLVPKKKRKVGGSNLLTVHQNLPALPVDATSDEVRKNLMDMFRDRQAFSEHTWKMLLSVCRSWAAWCKLNNRKWFPAEPEDVRDYLLYLQARGLAVKTIQQHLGQLNMLHRRSGLPRPSDSNAVSLVMRRIRKENVDAGERAKQALAFERTDFDQVRSLMENSGSGSGATNFSLLKQAGDVEENPGPLEDRCQDIRNLAFLGIAYNTLLRIAEIARIRVKDISRTDGGRMLIHIGRTKTLVSTAGVEKALSLGVTKLVERWISVSGVADDPNNYLFCRVRKNGVAAPSATSQLSTRALEGIFEATHRLIYGAKDDSGQRYLAWSGHSARVGAARDMARAGVSIPEIMQAGGWTNVNIVMNYIRNLDSETGAMVRLLEDGD
modifications: MISC_FEATURE - HAtag; SIGNAL 23..30 Nuclear Localization Signal; MISC_FEATURE - N-terminal of Cre; MISC_FEATURE - P2A; MISC_FEATURE - C-terminal side of Cre; Bacteriophage P1
recombination efficiency of the self-assembled split fragments ([1]; N-terminal (a.a. 2-152) and C-terminal (a.a. 153-343) fragments expressed via P2A in HEK293 cells, no TMP): high recombination efficiency comparable to that of iCre

B4: DD-Cre: destabilized Cre tagged with one ecDHFR-derived DD sequence; SEQ ID No: 3 (protein)
chain: MVSKYPYDVPDYARSGGSGGMISLIAALAVDYVIGMENAMPWNLPADLAWFKRNTLNKPVIMGRHTWESIGRPLPGRKNIILSSQPSTDDRVTWVKSVDEAIAACGDVPEIMVIGGGRVIEQFLPKAQKLYLTHIDAEVEGDTHFPDYEPDDWESVFSEFHDADAQNSHSYCFEILERRGGSGGSGGKLVPKKKRKVGGSNLLTVHQNLPALPVDATSDEVRKNLMDMFRDRQAFSEHTWKMLLSVCRSWAAWCKLNNRKWFPAEPEDVRDYLLYLQARGLAVKTIQQHLGQLNMLHRRSGLPRPSDSNAVSLVMRRIRKENVDAGERAKQALAFERTDFDQVRSLMENSDRCQDIRNLAFLGIAYNTLLRIAEIARIRVKDISRTDGGRMLIHIGRTKTLVSTAGVEKALSLGVTKLVERWISVSGVADDPNNYLFCRVRKNGVAAPSATSQLSTRALEGIFEATHRLIYGAKDDSGQRYLAWSGHSARVGAARDMARAGVSIPEIMQAGGWTNVNIVMNYIRNLDSETGAMVRLLEDGD
modifications: MISC_FEATURE - HAtag; DOMAIN 21..179 degradation domain; SIGNAL 190..197 Nuclear Localization Signal; Bacteriophage P1
TMP-dependent DNA recombination activity ([1]; HEK293 cells transfected with 5 ng of expression plasmid, TMP treatment): does not induce the DNA recombination | background DNA recombination activity (leakage) in the absence of TMP ([1]; HEK293 cells, no TMP): almost the same level of the recombination activity of iCre | recombination activity after reduction of the transfection amount ([1]; transfection amount reduced by one 400th, HEK293 cells): remained at almost the same level as that before the reduction of the transfection amount | DNA recombination activity in vivo in the absence of TMP [2]: high DNA recombination activity at the same level as iCre | TMP-dependent DNA recombination activity in vivo [2]: DNA recombination was not induced
